Consider three molecules from patent publication US20250326812A1 (CUGENE, published 2025).

Where no end group is shown, it is not given here.

The experiment addresses T1, P-0153, an IL-15/IL-15RαSushi+ Fc fusion protein.
T1 construct: Heterodimeric knob/hole Fc fusion; It served as the plate-coated source of IL-15 in the peptide ELISA
The experiment can be described thus: ELISA; P-0153 coated on the plate at 1 ug/well, biotinylated peptide in 3-fold dilutions from 100 uM, streptavidin-HRP, TMB, OD450. As for the experimental part: The five peptides, L01 to L05 (SEQ ID NO: 97-101) in Table 13 were synthesized and assessed for their binding to IL-15 in ELISA format. […] Streptavidin-HRP complex at the manufacturer's recommended concentration was added and signal was developed by TMB substrate.

T1 sequence (chain, as listed by the source, chain 1 of 2): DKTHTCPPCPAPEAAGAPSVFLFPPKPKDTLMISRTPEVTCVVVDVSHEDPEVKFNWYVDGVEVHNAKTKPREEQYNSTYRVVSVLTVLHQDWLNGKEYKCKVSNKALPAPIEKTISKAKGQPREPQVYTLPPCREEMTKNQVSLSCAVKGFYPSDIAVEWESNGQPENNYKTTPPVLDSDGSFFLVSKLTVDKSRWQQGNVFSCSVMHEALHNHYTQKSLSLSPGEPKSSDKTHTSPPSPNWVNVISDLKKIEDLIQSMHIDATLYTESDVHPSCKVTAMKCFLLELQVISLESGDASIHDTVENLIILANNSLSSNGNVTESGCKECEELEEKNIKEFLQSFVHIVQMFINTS
T1 sequence (chain, as listed by the source, chain 2 of 2): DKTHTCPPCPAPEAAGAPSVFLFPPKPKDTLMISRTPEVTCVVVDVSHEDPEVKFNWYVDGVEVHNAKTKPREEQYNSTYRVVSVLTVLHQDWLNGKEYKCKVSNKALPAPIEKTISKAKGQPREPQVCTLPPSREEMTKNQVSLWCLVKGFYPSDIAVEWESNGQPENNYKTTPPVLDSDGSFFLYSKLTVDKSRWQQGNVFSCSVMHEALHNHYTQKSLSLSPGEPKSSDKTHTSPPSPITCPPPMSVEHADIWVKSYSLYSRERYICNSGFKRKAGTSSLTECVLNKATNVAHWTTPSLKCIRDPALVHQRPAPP

B1: L04 (peptide)
peptide: LGAPDSQKLTTVDIVGGGGGGGGEISQASHYFERHL
modifications: also: biotinylated, site not given here
Consider B1, for which the binding result is recorded as “binds”.

B2: L02 (peptide)
peptide: EISQASHYFERHL
modifications: also: biotinylated, site not given here
notes: also called IL-2Rβ loop 2 peptide (linear)
For the molecule B2, the binding result is listed as “binds”.

B3: Blocking peptide L03 (cyclized IL-2Rβ loop 2) (peptide)
peptide: CEISQASHYFERHLC
modifications: also: biotinylated, position not given here, cyclized, mode and sites not given here
notes: Synthetic peptide
As to B3, the half-maximal effective concentration (EC50 (read off the curve)) (in general, the concentration needed to bring the measured effect to its halfway point) was roughly 8 µM.
